Data from paper doi:10.1101/2022.01.19.476892 (bioRxiv, 2022).

Key:
[1] = target: T1, SARS-CoV-2 WT RBD protein (residues 319-541) (SARS-CoV-2, UniProt P0DTC2); assay: SPR
[2] = target: T1, SARS-CoV-2 WT RBD protein (residues …); assay: ELISA
RBD protein of SARS-CoV [3] = target: T2, RBD protein of SARS-CoV (Severe acute respiratory syndrome …, UniProt P59594); assay: SPR
RBD protein of SARS-CoV [4] = target: T2, RBD protein of SARS-CoV; assay: cell-based or functional assay

| Binder | binding result [1] | further results |
| --- | --- | --- |
| EY6A (antibody, V domains shown) VH: EVQLVESGGGVVQPGRSLRLSCAASAFTFSSYDMHWVRQAPGKGLEWVAVISYDGSNKYYADSVKGRFTISRDNSKNTLYLQMNSLRAEDTAVYYCAKDGGKLWVYYFDYWGQGTLVTVSS VL: not shown | binds | – |
| C022 (antibody, V domains shown) VH: QVQLQESGPGLVKPSETLSVTCTVSGGSISSSRYYWGWIRQPPGKGLEWIGSIYYSGSTYYNPSLKSRVTISVDTSKNQFSLKLSSVTAADTAVYYCARHAAAYYDRSGYYFIEYFQHWGQGTLVTVSS VL: DIQMTQSPSTLSASVGDSVTITCRASQSISSWLAWYQQKPGKAPKLLIYKASSLESGVPSRFSGSGSGTEFTLTISSLQPDDFATYYCQQYNNYRYTFGQGTKLEIK | binds | – |
| VacW-209 (antibody, V domains shown) VH: QVQLVESGGGVVQPGRSLRLSCAASGFTFSSIAMHWVRQAPGKGLEWVAVMSFDGSIKYYGDSVKGRFTISRDNSKSTLYLQMNSLRAEDTAVYYCARGVQGYYDRSGYYNLDYNYGMDVWGQGTTVTVSS VL: QSVLTQPPSVSGAPGQRVTISCTGSSSNIGAGYDVHWYQQLPGTAPKLLIYGNSNRPSGVPDRFSGSKSGTSASLAITGLQAEDEADYYCQSYDSSLSGWVFGGGTKLTVL | – | binding result [2]: binds; Kd (RBD protein of SARS-CoV [3]): 0.54 nM; IC50 of neutralisation of SARS-CoV pseudovirus (HEK-293T-hACE2 cells) (RBD protein of SARS-CoV [4]): 0.141 µg/mL |
| S2X35 (antibody, V domains shown) VH: QVQLVQSGAEVKKPGASVKVSCKASGYTFTNYGISWVRQAPGQGLEWMGWISAYKGNTNYAQKLQGRVTMTTDTSTSTAYMELRSLRSDDTAVYYCARPDYQVLGYDFWIGYYGMDVWGQGTTVIVSS VL: QSVLTQPPSVSGAPGQRVTISCTGSSSNIGAGYDVHWYQQLPGTAPKLLIYGNTNRPSGVPDRFSGSKSGTSASLAITGLQAEDEADYYCQSYDSSLSGSEVVFGGGTKLTVL | binds | – |
| C118 (antibody, V domains shown) VH: QVQLVESGGGVVQPGRSLRLSCAASGFTFSNYAMHWVRQAPGKGLEWVAVISYDGSNKYYADSVKGRFTISRDNSKNTLYLQMNSLRAEDTAIYYCASGYTGYDYFVRGDYYGLDVWGQGTTVTVSS VL: QPVLTQSPSASASLGASVKLTCTLSSGHSSYAIAWHQQQPEKGPRYLMKLNTDGSHSKGDGIPDRFSGSSSGAERYLTISSLQSEDEADYYCQTWGTGILVFGGGTKLTVL | binds | – |
| H014 (antibody, V domains shown) VH: EVQLVQSGAEVKKPGATVKISCKVSGYSFSNYYIHWVKQAPGKSLEWIGYIDPFNGGTSDNLKFKGAATLTADTSTDTAYMELSSLRSEDTAVYYCARSEYDPYYVMDYWGQGTTVTVSS VL: IVLTQSPFQSVSPKEKVTITCRASQSISSNLHWYQQKPDQSPKLLIKYASQSISGIPSRFSGSGSGTDFTLTINSLEAEDFGIYFCQQTNFWPYIFGQGTKLEIL | binds | – |
